Results published in publication PMC7952905.
pKd: −log10 of the molar value.

Target: human ACE2 extracellular domain (19-615) (human) (UniProt Q9BYF1)
Assay: SPR

“RaTG13 RBD (333-526) (from UniProt A0ABF7PLN6 333-526) (domain or fragment; other documents disagree on this pair)” was tested. Which pKd did it give?
The pKd was 6.30.
